Laboratory results taken from patent US20200087395 (published 2020).

Assays:
[1] = target: FcγRIIIA_158F ECD (human, UniProt P08637); experiment: SPR, 25C
[2] = target: T1, mouse CD200R (mouse, UniProt Q9ES57); experiment: SPR, 37C
T1 chain: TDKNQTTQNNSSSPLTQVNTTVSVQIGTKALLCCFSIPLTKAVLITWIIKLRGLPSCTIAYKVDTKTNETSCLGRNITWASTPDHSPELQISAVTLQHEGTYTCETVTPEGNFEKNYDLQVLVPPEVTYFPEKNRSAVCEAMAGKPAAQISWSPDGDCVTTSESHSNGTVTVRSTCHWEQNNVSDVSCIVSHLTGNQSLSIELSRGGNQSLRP

[3] = target: T2, cynomolgus CD200RLa (activating form) (cynomolgus monkey); experiment: SPR, 37C
T2 chain: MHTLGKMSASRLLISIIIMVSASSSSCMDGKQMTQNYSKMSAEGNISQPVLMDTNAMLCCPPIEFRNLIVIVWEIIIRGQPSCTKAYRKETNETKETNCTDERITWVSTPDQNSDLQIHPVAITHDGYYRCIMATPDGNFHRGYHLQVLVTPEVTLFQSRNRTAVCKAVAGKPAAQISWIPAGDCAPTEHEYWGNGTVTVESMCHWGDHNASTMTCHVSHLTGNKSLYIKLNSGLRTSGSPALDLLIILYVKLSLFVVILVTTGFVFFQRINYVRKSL

[4] = target: T2, cynomolgus CD200RLa (activating form); experiment: FACS

FcγRIIIA_158F ECD, sequence (P08637 17-208): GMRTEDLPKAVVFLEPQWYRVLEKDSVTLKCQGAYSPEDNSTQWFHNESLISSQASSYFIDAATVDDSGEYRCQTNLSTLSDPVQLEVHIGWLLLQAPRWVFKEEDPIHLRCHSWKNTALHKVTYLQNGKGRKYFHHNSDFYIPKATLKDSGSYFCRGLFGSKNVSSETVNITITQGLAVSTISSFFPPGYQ

B1: Antibody I-4P (antibody)
chain 1: not shown
chain 2: EIVLTQSPDFQSVTPKEKVTITCQASESIDSYLLWYQQKPDQSPKLLIKQASTLASGVPSRFSGSGSGTDFTLTINSLEAEDAATYYCQNYYDISSNDFGGGTKVEIKRTVAAPSVFIFPPSDEQLKSGTASVVCLLNNFYPREAKVQWKVDNALQSGNSQESVTEQDSKDSTYSLSSTLTLSKADYEKHKVYACEVTHQGLSSPVTKSFNRGEC
modifications: listing feature
[1]
  Kd: > 10 µM
[2]
  Kd: > 10 µM
[3]
  Kd: 2.5 µM
[4]
  binding result: no binding
